Results from the nanobody polyreactivity screen of Harvey et al. (2022).

Test: yeast display, Sf9 membrane polyspecificity reagent, FACS + sequencing; frameworks hold sequencing errors
Method in brief: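 Using colony PCR, genes from sorted yeast display clones were amplified, then sequenced on MiSeq at 2 × 250 and filtered by CDR length. The clones had been stained with 10% biotinylated, detergent-solubilized Sf9 membrane reagent for 1 hour at 4 °C and sorted by FACS into low and high (top ~1%) gates on anti-HA and streptavidin fluorescence. Polyreactivity labels come from the gate of origin.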

Question: With “QVQHVESGGGLVQAGGSLRLSCAASGSTFYRYTMGWYRQPPGKEREFVATITGRGGSTYADSVKGRFTISRDNAKNTVYLQMNSLKPEDTAVYYCAKRQTYREYDYWGQGTQVTVSS” as the sequence, how does the “polyreactivity (PSR sort gate)” value read?
Answer: low polyreactivity

Question: With “QVQHVESGGGLVQAGGSLRLSCAASGSTIRNYAMGWYRQAHGKERELVAAISSGGRTYYADSVKGRFTISRDNAKNPVYLQMTSLKPEDTAVYYCAARVYYWSFAGILYTPTGGYWGQGTQVTVSS” as the sequence, how does the “polyreactivity (PSR sort gate)” value read?
Answer: high polyreactivity

Question: Which “polyreactivity (PSR sort gate)” value does the source give for “QVQHVESGGGLVQAGGSLRLSCAASGSTQTRNPMGWYRKAPGKERELVAAITQRGGSTYYADSVKGRFTISRDNAKNTVYLQMNSLKPEDTAVYYCAKVPSVKYRSIWVLPEYGWGQGTQVTVSS” here?
Answer: low polyreactivity

Question: With “QVQHVESGGGLVQAGGSLRLSCAASGTIFTVYAMGWYRQAPGKERELVAAITRNGGRTYYADSVKGRFTISRDNAKNTVYLQMNSLKPEDTAVYFCAAPGLYSRLDYWGQGTQVTVSS” as the sequence, how does the “polyreactivity (PSR sort gate)” value read?
Answer: high polyreactivity

Question: Which “polyreactivity (PSR sort gate)” value does the source give for “QVQHVESGGGLVQAGGSLRLSCAASGYIFSRYRGWYRQAPGTERELVAAITRGGVSTYYADSVKGRFTISRDNAKNTVYLQMNSLKPEDTAVYYCATGRPVYYVASYDYDYWGQGTQVTVSS” here?
Answer: low polyreactivity

Question: With “QVQHVESGGGLVQAGGSLRLSCAASGYIFYTYAMGWYRQAPGKERELVAGINRGDSTNYADSVKGRFTISRDNAKNTVYLQMNSLKPEDTAVYYCNARQRTYYRTHRIRHKGNGYWGQGTQVTVSS” as the sequence, how does the “polyreactivity (PSR sort gate)” value read?
Answer: low polyreactivity

Question: Which “polyreactivity (PSR sort gate)” value does the source give for “QVQHVESGGGLVQAGGSLRLSCAASGYTFGYYAMGWYRQAPGKERELVASITERGGSTYYADSVKGRFTISRDNAKNTVYLQMNSLKPEDTAVYYCAADWDPSWWLFPTSSYDYWGQGTQVTVSS” here?
Answer: low polyreactivity

Question: Which “polyreactivity (PSR sort gate)” value does the source give for “QVQHVESGGGLVQAGGSLRLSCAASGYTFYIYPMGWYRQAPGKERELVATISSSGGGTYYADSVKGRFTISRDNAKNTVYLQMNSLKPEETAVYYCAADSWRYVAEGLWREYDYWGQRTQVTVSS” here?
Answer: low polyreactivity

Question: Which “polyreactivity (PSR sort gate)” value does the source give for “QVQHVESGGGLVQAGGSLRLSCAASGYTYDPNAMGWYRQAPGKERELVAAISRIGGSTYYADSVKGRFRISRDNAKNTVYLQMNSLKREDTAVYYCAQEYYDGYFPTFDYDYWGQGTQVTVSS” here?
Answer: low polyreactivity

Question: With “QVQHVESGGGLVQAGGSLRLSCAASVRTFYTYAMGRDRQAPGKERELVAAISLSGTRTYYADSVKGRFTISRDNAKNTVYLQMNSLNPEDTAVYYCAADRFNKPYYYWGQGTQVTVSS” as the sequence, how does the “polyreactivity (PSR sort gate)” value read?
Answer: high polyreactivity

Question: For “QVQHVESGGGLVQAGGSLRLSCAASVSTFEYYAIGRYRQAPGKERELVASISSGGSTYYADSVKGRFTISRDNAKNTVYLQMNSLKPEDTAVYYCAADSYYGYEYWGQGTQVTVSS”, which “polyreactivity (PSR sort gate)” value is on record?
Answer: low polyreactivity

Question: With “QVQHVESGGGLVQAGGSLRLSCASSGFILEPYGMGWYRPAPGKERELVAAITSGASTYYADSVKGRFTISRDNAMNTVYLQMNILKPEDTAVYYCAVDPYSTYSEYDSWGQGTQVTVSS” as the sequence, how does the “polyreactivity (PSR sort gate)” value read?
Answer: low polyreactivity

Question: For “QVQHVESGGGLVQAGGSLRLSCASSGITFPDYSMGWYRQAPGKERELVAGISSTGDSTYYADSVKGRFTISRDNGKKTVYLQMNSLKPEDTAVYYCNAAQERPIIILFSKYDYWGQGTQVTVSS”, which “polyreactivity (PSR sort gate)” value is on record?
Answer: low polyreactivity

Question: For “QVQHVESGGGLVQAGGSLRLSCASSGSTFWFYAMGWYRQAPGKERELVATINWYGGTTNYADSVKGRFTISRDNAKNSVYLQMYSLKPEDTADYYGAGYQALTYGSYEYWGQGSQVTVSS”, which “polyreactivity (PSR sort gate)” value is on record?
Answer: low polyreactivity

Question: Which “polyreactivity (PSR sort gate)” value does the source give for “QVQHVESGGGLVQAGGSLRLSCAVSGRTFYYYAMGWYRQAPGKERELVAAISSSGGSTYYADSVKGRFTISRDNAKNTVYLQMNSLKPEDTAVYYCAAAARKVSVSRYLYYYWGQGTQVTVSS” here?
Answer: high polyreactivity

Question: Which “polyreactivity (PSR sort gate)” value does the source give for “QVQHVESGGGLVQAGGSLRLSCDASGRIFLYKAMGWYRQAPGKERELVAAIDGGGTTYADSVKGRFTISRDNAKNTVYLQRNSLKPEDTAVYYCAADWYYQYSIYRYGYWGQGTQVTVSS” here?
Answer: low polyreactivity

Question: For “QVQHVESGGGLVQAGGSLRLSCPASGSIFARYAMGWYRQAPGKERELVAAITSGGITNYADSVMGRFTISRDNAKNTVYLQMISLNPEDTAVYYCAARRSGRVRYDYWGQGTQVTVSS”, which “polyreactivity (PSR sort gate)” value is on record?
Answer: high polyreactivity

Question: For “QVQHVESGGGLVQAGGSLRLSCPASGSTLYGYAMGWYRQEPGKESELVAAINTGASTNYADSVKGRFTISRDNAKNTVYLQMNSLKPEDTAVYYCAASYSLTFWDKDDYWGQGTQVTVSS”, which “polyreactivity (PSR sort gate)” value is on record?
Answer: low polyreactivity

Question: For “QVQHVESGGGLVQAGGSLRLSSAASGRIFKRNALGWYRQAPGKEREMVATISGSGGSTYYADSVKGRFTISRDNAKNTVYLQMNSLNPEDTAVYYCAAGYKSYWRLSSPKMDYWGQGTQVTVSS”, which “polyreactivity (PSR sort gate)” value is on record?
Answer: high polyreactivity

Question: For “QVQHVESGGGLVQAGGSLRLSSAASGRTFYYNAMGWYRQAPGKERELVASITITDSTNYADSVKGRFTISRDNAKNTVYLQMNSLKPEDTAVYYCAKRGWGTSFYLSDYWGQGTQVTVSS”, which “polyreactivity (PSR sort gate)” value is on record?
Answer: low polyreactivity

Question: Which “polyreactivity (PSR sort gate)” value does the source give for “QVQHVESGGGLVQAGGSLRLTCAATGRIFYTNTMGWYRQAPGKEREFVAAISWRGGSTYYADSVKGRFTISRDNAKNTVYLQMNSLKPEDTAVYYCAKTRTYFLSRYVSWGQGTQVTVSS” here?
Answer: high polyreactivity

Question: For “QVQHVESGGGLVQAGGSLSLICAASGSIFCYYAMGWYRKAPGKERELVAAIDSGGSTYYADSVKGRFTISRDNAKNTVYLQMNILKPEDTAVYYCAAGVSSFSPYDSWGQGTQVTVSS”, which “polyreactivity (PSR sort gate)” value is on record?
Answer: low polyreactivity

Question: With “QVQHVESGGGLVQAGGSLSLSCAASGSTFKHYAMGWYRQAPGKERELVAAISSRGGSTHYADSVKGRFRISRDNAKNTVYLQMNSLKPEDTAVYYCARDTDPQSSRSSDYDYWGQGTQVTVSS” as the sequence, how does the “polyreactivity (PSR sort gate)” value read?
Answer: low polyreactivity

Question: For “QVQHVESGGGLVQAGGSLSLSCADSGFIFRYYAMGWYRQAPGKERELDAAISWSGGSTYYADSVKGRFTISRDNSKNTVYLQMNSLKPEDTAVYYCAADRYAILFYAEDYWGQGSQVTVSS”, which “polyreactivity (PSR sort gate)” value is on record?
Answer: low polyreactivity

Question: With “QVQHVESGGGLVQAGGSQRLSCAASGSIFDYYAMGWYRQAPGKERELVAAISTSTSSTYYADSVKGRFTISRDNAKNTVYLQLNSLKPEDTAVYYCAAVGESQPEYPGYDYWGQGTQVTVSS” as the sequence, how does the “polyreactivity (PSR sort gate)” value read?
Answer: low polyreactivity

Question: For “QVQHVESGGGLVQAGGSRRLSCAASGSTFYGYAMGWYRQAPGKEREFVAAITTSGGSTYYADSVKGRFTISRDNANNTVYLQMNSLKPEDTAVYYCAADGFYYDDGYWGQGTQVTVSS”, which “polyreactivity (PSR sort gate)” value is on record?
Answer: low polyreactivity

Question: Which “polyreactivity (PSR sort gate)” value does the source give for “QVQHVESGGGLVQAGRSLRLICAASGSTFLEYAMGWYRQAPGKERELVASISWSGGSTNYADSVKGRFTFSRDNAKNTVYLQMNSLKPEDTAVFYCNARGWSVVSSRYGYWGQGTQVTVSS” here?
Answer: low polyreactivity

Question: Which “polyreactivity (PSR sort gate)” value does the source give for “QVQHVESGGGLVQARGSLRLSCSASGVIFYNYAMGWSRQAPGKEREFVAAISGSGGSTYYADSVKGRFTISRDNAKNTVYLQMNSLKPEDTAVYYCAVRQRYGPARYDYWGQGTQVTVSS” here?
Answer: high polyreactivity

Question: With “QVQHVESGGGLVQGGGSLRLSCAASGSTFYAYAKGWYRQARGKERELVAVITSSGSTYYADSVKGRFTISRDNAKNTDYLQMNSLKAEDTAVYYCAAKRLSQSRRTQYRTRYQPMYYWGQGTQVTVSS” as the sequence, how does the “polyreactivity (PSR sort gate)” value read?
Answer: high polyreactivity

Question: Which “polyreactivity (PSR sort gate)” value does the source give for “QVQHVESGGGVVQAGGSLRLSCAASGSIFSRYTMGWYRQAPGKERELVAAITSSGGRTYYADSVKGRFTISRDNAKNTVYLQMNSLKPEDTSVYYFDARIPKQQGYGYWGQGTQVTVSS” here?
Answer: high polyreactivity

Question: Which “polyreactivity (PSR sort gate)” value does the source give for “QVQHVESGGRLVQAGGSLRLICAASGRTFAPYAMGWYRQAPGKVRELVARITWSGTDTYYADSVKGRFTISRDNAKNTVYLQMNSLKPEDTAVYYCAADARYSRRYYYWGEGTQVTVSS” here?
Answer: low polyreactivity

Question: For “QVQHVESGRGLVQAGCSLPLSCAASGFTFLAYAMGWYRQAPGKETELVAAISRSGGRTYYADSVKWRFTISRDNAKNTVYLQMNSLKPEDTAVYYCAKRVLTHPGDDYWGQGAQVTVSS”, which “polyreactivity (PSR sort gate)” value is on record?
Answer: high polyreactivity

Question: With “QVQHVESGRGLVQAGGSLRLSCAASGSIQGGNARGCSSQAPGKESELVAAITFSGGGTYYADSVKGRLTISRDNAKNTVYLQMNSVKPEDTAVYYCAADIDGYTYEFDYWGQGTQVTVYS” as the sequence, how does the “polyreactivity (PSR sort gate)” value read?
Answer: low polyreactivity

Question: With “QVQHVESGRGLVQAGVSLRLSCAASGIFFGAYAMGWYRQAPGKEREFVAAISRSGGSTYYADSVKGRFTISRDYAKNTVYFQKNSLKPEDSAVYYCNALAKYHYYLGQGTQVTVSS” as the sequence, how does the “polyreactivity (PSR sort gate)” value read?
Answer: high polyreactivity

Question: For “QVQHVESGVGLVQAVGSLRLSCAASGLTFKYYAMGWYRQAAVKEWELVARLSRTGGSTNYADSVKGRFTISRDNAKNTLYLQMNSLKPEDTAVSYCNTQFSYSSAPPFWYTKMYYWGQGTQVTVSS”, which “polyreactivity (PSR sort gate)” value is on record?
Answer: high polyreactivity

Question: With “QVQHVESRGGLVQAGGSLRLRCAASGRIFSHYAMGWYRQAPGKERELVAAITSDGSTNYADSVKGRFTISRDNAKNTVYLQMNSLKPEDTAVYYCAKYVHIPYYYYLFGSYDYWGQGSQVTVSS” as the sequence, how does the “polyreactivity (PSR sort gate)” value read?
Answer: low polyreactivity

Question: With “QVQHVESRGGLVQAGGSLRLSCAASGIIFSRNAMGWSRKAPGKERELLSGITSSGGTTYYADSVKGRFTISRDNAKNTVYLQMNSLKAEDTAVYYCAAYSTQNYSYRRYYYWGQGTQVTVSS” as the sequence, how does the “polyreactivity (PSR sort gate)” value read?
Answer: high polyreactivity

Question: With “QVQHVESRGGLVQAGGSLRLSCAASGLIFTCNAMGWYRQAPGKERELVAAISTGGSTSYADSVKGRFTIARDNAKNTVYLQMNSLKPEDTAVYYCARDSSIWSHGSWYDYWGQGTQVTVSS” as the sequence, how does the “polyreactivity (PSR sort gate)” value read?
Answer: low polyreactivity

Question: Which “polyreactivity (PSR sort gate)” value does the source give for “QVQHVESRGGLVQAGGSLRLSCAASGRTFFNNVMGWYRQAPGKERELVAAISKSGTRTYYADSVKGRFTISRDNAKNTVYLQMNSLKPEDTAVYYCATGQYLRTSRYYYWGQGTQVTVSS” here?
Answer: high polyreactivity

Question: For “QVQHVESRGGLVQAGGSLRLSCAASGRTFFWYAMGWYRQAPGKERELVADISSSGGSTYYADSVKGRFTISRDNAKNTVYLQMNSLKPEDTAVYYCAALSPWWRGGYNYWGQGTQVTVSS”, which “polyreactivity (PSR sort gate)” value is on record?
Answer: high polyreactivity

Question: For “QVQHVESRGGLVQAGGSLRLSCAASGSIFGYYGMGWYRQAPGKERELVATITSGGSTNYADSVKGRFTISRDNAKNTVYLQMNSLKPEDTAVYYCARQYGYQPERYGYWGQGTQVTVSS”, which “polyreactivity (PSR sort gate)” value is on record?
Answer: low polyreactivity

Question: With “QVQHVESRGGLVQAGGSLRLSCAASGSTIISNAQGWYRLAPGKERELVASIRSSGSTNYADSVKGRFTISRDNAKNTVYLKMNSLKPEDTAVYYCAAGSYWVQFQYDYWGQGTQVTVSS” as the sequence, how does the “polyreactivity (PSR sort gate)” value read?
Answer: low polyreactivity

Question: With “QVQHVESVGGLVQAGGSLRLSCAASGSIFFWYDMGWYRQAPGKERELVASISSGGSTYYADSVKGRFTISRDNAKNTVYLQMNSLKPEDNAVYYCNAKSWSPAKSFSFFRFDYWGQGTQVTVSS” as the sequence, how does the “polyreactivity (PSR sort gate)” value read?
Answer: low polyreactivity
